Assay [1] deals with full length 6xHis tagged p53 (human, UniProt P04637 1-393). In words: pull-down.
A further assay addresses UBE2D2/UbcH5b (UniProt P62837 1-147). Nature of the assay: NMR titration.

These results are taken from publication PMC4075976 (Nature structural & molecular biology, 2008).

Where no end group is shown, it is not given here.

Sequence of full length 6xHis tagged p53 (P04637 whole entry): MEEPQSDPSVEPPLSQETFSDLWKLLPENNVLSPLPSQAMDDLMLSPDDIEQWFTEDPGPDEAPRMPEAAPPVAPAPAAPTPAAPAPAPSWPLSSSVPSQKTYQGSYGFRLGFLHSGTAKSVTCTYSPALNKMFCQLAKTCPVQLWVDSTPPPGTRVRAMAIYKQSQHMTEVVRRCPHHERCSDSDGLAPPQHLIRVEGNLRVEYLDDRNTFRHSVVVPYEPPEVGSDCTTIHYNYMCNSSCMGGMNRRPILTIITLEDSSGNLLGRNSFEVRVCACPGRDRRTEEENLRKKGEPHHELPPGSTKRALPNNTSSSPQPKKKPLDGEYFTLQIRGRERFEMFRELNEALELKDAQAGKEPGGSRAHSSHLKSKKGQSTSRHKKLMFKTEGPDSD

B1: GST-Pirh2 NTD (domain or fragment, human, UniProt Q96PM5 1-137, looked up)
chain: MAATAREDGASGQERGQRGCEHYDRGCLLKAPCCDKLYTCRLCHDNNEDHQLDRFKVKEVQCINCEKIQHAQQTCEECSTLFGEYYCDICHLFDKDKKQYHCENCGICRIGPKEDFFHCLKCNLCLAMNLQGRHKCI
Turning to B1, the binding result in assay [1] is “binds”.

B2: Pirh2 RING domain (GST removed) (domain or fragment)
chain: ENVSRQNCPICLEDIHTSRVVAHVLPCGHLLHRTCYEEMLKEGYRCPLCMHS
modifications: cysteine pairing not given here; also: 2 Zn ions bound
On to B2, for which the Kd – broadly, the constant that tells how readily two partners part at equilibrium – with UBE2D2/UbcH5b is around 200 µM.
